# Assay results from IntAct's records for PubMed 20150893.
# B1: Vacuolar protein sorting-associated protein 27 (Saccharomyces cerevisiae), P40343 (parent)
# chain: MSVSTPSELDALIEQATSESIPNGDLDLPIALEISDVLRSRRVNPKDSMRCIKKRILNTADNPNTQLSSWKLTNICVKNGGTPFIKEICSREFMDTMEHVILREDSNEELSELVKTILYELYVAFKNDSQLNYVAKVYDKLISRGIKFPEKLTLSNSPTAMFDSKTPADWIDSDACMICSKKFSLLNRKHHCRSCGGVFCQEHSSNSIPLPDLGIYEPVRVCDSCFEDYDLKRHDDSKKSKKHRHKRKKDRDYSTPEDEEELIRKAIELSLKESRNSASSEPIVPVVESKNEVKRQEIEEEEDPDLKAAIQESLREAEEAKLRSERQKASRQMQPQQPSPQPQPIHSVDLSDEEKDSIYMFASLVEKMKSRPLNEILEDSKLQNLAQRVFASKARLNYALNDKAQKYNTLIEMNGKISEIMNIYDRLLEQQLQSINLSQQYTLPQVPSDPYNYLTENVQNPAESYQTPPLQQLSSHQYKPQQDVSRQQSVKANSSPTTNIDHLKTIDVTPHAQQKPQSHVELAPSDPPYPKEEAEDEGTQAVQDEESSTQESRERPYPVETENGETSINKRPQGITRYDFPTVPARKFVQPESTVPLPASSSEIPIKEERPPSPQEELLIEL
# B2: Class E vacuolar protein-sorting machinery protein HSE1 (Saccharomyces cerevisiae), P38753 (parent)
# chain: MSSSAIKIRNALLKATDPKLRSDNWQYILDVCDLVKEDPEDNGQEVMSLIEKRLEQQDANVILRTLSLTVSLAENCGSRLRQEISSKNFTSLLYALIESHSVHITLKKAVTDVVKQLSDSFKDDPSLRAMGDLYDKIKRKAPYLVQPNVPEKHNMSTQADNSDDEELQKALKMSLFEYEKQKKLQEQEKESAEVLPQQQQQHQQQNQAPAHKIPAQTVVRRVRALYDLTTNEPDELSFRKGDVITVLEQVYRDWWKGALRGNMGIFPLNYVTPIVEPSKEEIEKEKNKEAIVFSQKTTIDQLHNSLNAASKTGNSNEVLQDPHIGDMYGSVTPLRPQVTRMLGKYAKEKEDMLSLRQVLANAERSYNQLMDRAANAHISPPVPGPALYAGMTHANNTPVMPPQRQSYQSNEYSPYPSNLPIQHPTNSANNTPQYGYDLGYSVVSQPPPGYEQ
# B3: Signal transducing adapter molecule 1 (Homo sapiens), Q92783 (parent)
# chain: MPLFATNPFDQDVEKATSEMNTAEDWGLILDICDKVGQSRTGPKDCLRSIMRRVNHKDPHVAMQALTLLGACVSNCGKIFHLEVCSRDFASEVSNVLNKGHPKVCEKLKALMVEWTDEFKNDPQLSLISAMIKNLKEQGVTFPAIGSQAAEQAKASPALVAKDPGTVANKKEEEDLAKAIELSLKEQRQQSTTLSTLYPSTSSLLTNHQHEGRKVRAIYDFEAAEDNELTFKAGEIITVLDDSDPNWWKGETHQGIGLFPSNFVTADLTAEPEMIKTEKKTVQFSDDVQVETIEPEPEPAFIDEDKMDQLLQMLQSTDPSDDQPDLPELLHLEAMCHQMGPLIDEKLEDIDRKHSELSELNVKVMEALSLYTKLMNEDPMYSMYAKLQNQPYYMQSSGVSGSQVYAGPPPSGAYLVAGNAQMSHLQSYSLPPEQLSSLSQAVVPPSANPALPSQQTQAAYPNTMVSSVQGNTYPSQAPVYSPPPAATAAAATADVTLYQNAGPNMPQVPNYNLTSSTLPQPGGSQQPPQPQQPYSQKALL
# Variants of: B1
# Conditions: with ubb_bovin UBB
row,effect of a mutation on the interaction,Variant
1,disrupting interaction,S270D
2,disrupting interaction,A266Q

# Variants of: B2
# Conditions: with ubb_bovin UBB
row,effect of a mutation on the interaction,Variant
1,disrupting interaction,A170Q
2,disrupting interaction,S174D

# Variants of: B3
# Conditions: with ubb_bovin UBB
row,effect of a mutation on the interaction,Variant
1,disrupting interaction,L30D

# Variants of: B3
# Conditions: with ubb_bovin UBB
# Remark: another data set of the same source
row,effect of a mutation on the interaction,Variant
1,disrupting interaction,W26A

# Variants of: B3
# Conditions: with ubb_bovin UBB
# Remark: another data set of the same source
row,effect of a mutation on the interaction,Variant
1,increasing interaction,D31Q

# Variants of: B3
# Conditions: with ubb_bovin UBB
# Remark: another data set of the same source
row,effect of a mutation on the interaction,Variant
1,decreasing interaction,G27E
